B1: CDC14A (parent)
chain: LNLAMVYRYCCKLNKKLKSYSLSR

94 variants from the supplement of paper PMC10567573 can be followed below.
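Further: lentivirally expressed fusions sorted by FACS into six bins by GFP to DsRed ratio, PSI derived from sequencing read proportions per bin multiplied by bin number.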

The data set covers variants of B1. Briefly: protein stability index of a GFP-peptide fusion (GPS, HEK-293T) (PSI 1-6); higher = more stable. The note with it: c terminus: a fixed tail appended.
Consider LNLAMVYRYCCKLNIKLKSYSLSR, for which the protein stability index came to 3.62.

Turning to LNLAMVYRYCCKLNFKLKSYSLSR, the protein stability index came out at 2.81.

Take LNLAMVYRYCCKLNEKLKSYSLSR: the protein stability index came out at 3.47.

Turning to LNLAMVYRYCCKLNNKLKSYSLSR, the protein stability index was found to be 2.31.

Turning to LNLAMVYRYCCKLNLKLKSYSLSR, the protein stability index worked out at 3.39.

For LNLAMVYRYCCKLNTKLKSYSLSR, the protein stability index is 2.62.

Consider LNLAMVYRYCCKLNQKLKSYSLSR, for which the protein stability index came to 4.63.

Regarding LNLAMVYRYCCKLNHKLKSYSLSR, the protein stability index came to 3.69.

As for LNLAMVYRYCCKLNYKLKSYSLSR, the protein stability index came out at 3.3.

For LNLAMVYRYCCKLNMKLKSYSLSR, the protein stability index came to 1.07.

LNLAMVYRYCCKLNCKLKSYSLSR: the protein stability index amounted to 4.37.

LNLAMVYRYCCKLNDKLKSYSLSR: the protein stability index came out at 2.33.

Turning to LNLAMVYRYCCKLNAKLKSYSLSR, the protein stability index is 2.87.

LNLAMVYRYCCKLNVKLKSYSLSR: the protein stability index is 3.04.

Regarding LNLAMVYRYCCKLNPKLKSYSLSR, the protein stability index worked out at 2.32.

Regarding LNLAMVYRYCCKLNKKLKLYSLSR, the protein stability index is 2.5.

As to LNLAMVYRYCCKLNKKLKQYSLSR, the protein stability index amounted to 1.51.

Turning to LNLAMVYRYCCKLNKKLKHYSLSR, the protein stability index was 2.3.

In the case of LNLAMVYRYCCKLNKKLKMYSLSR, the protein stability index amounted to 3.69.

With LNLAMVYRYCCKLNKKLKGYSLSR, the protein stability index was 2.5.

In the case of LNLAMVYRYCCKLNKKLKPYSLSR, the protein stability index turned out to be 2.75.

For LNLAMVYRYCCKLNKKLKIYSLSR, the protein stability index was 3.03.

As to LNLAMVYRYCCKLNKKLKNYSLSR, the protein stability index was 2.8.

As for LNLAMVYRYCCKLNKKLKCYSLSR, the protein stability index amounted to 2.98.

As for LNLAMVYRYCCKLNKKLKKYSLSR, the protein stability index worked out at 2.19.

Regarding LNLAMVYRYCCKLNKKLKWYSLSR, the protein stability index was 3.46.

For LNLAMVYRYCCKLNKKLKDYSLSR, the protein stability index is 2.28.

As for LNLAMVYRYCCKLNKKLKRYSLSR, the protein stability index stood at 3.44.

For LNLAMVYRYCCKLNKKLKAYSLSR, the protein stability index was determined as 3.52.

Take LNLAMVYRYCCKLNKKFKSYSLSR: the protein stability index is 2.64.

On to LNLAMVYRYCCKLNKKEKSYSLSR, for which the protein stability index was determined as 1.69.

As to LNLAMVYRYCCKLNKKVKSYSLSR, the protein stability index came to 4.14.

LNLAMVYRYCCKLNKKDKSYSLSR: the protein stability index turned out to be 2.14.

Consider LNLAMVYRYCCKLNKKRKSYSLSR, for which the protein stability index is 2.78.

As for LNLAMVYRYCCKLNKKCKSYSLSR, the protein stability index was determined as 4.4.

In the case of LNLAMVYRYCCKLNKKMKSYSLSR, the protein stability index is 3.07.

As for LNLAMVYRYCCKLNKKAKSYSLSR, the protein stability index is 2.65.

On to LNLAMVYRYCCKLNKKNKSYSLSR, for which the protein stability index worked out at 2.54.

In the case of LNLAMVYRYCCKLNKKIKSYSLSR, the protein stability index is 2.95.

In the case of LNLAMVYRYCCKLNKKTKSYSLSR, the protein stability index is 2.08.

On to LNLAMVYRYCCKLNKKSKSYSLSR, for which the protein stability index worked out at 2.17.

Regarding LNLAMVYRYCCKLNKKGKSYSLSR, the protein stability index was 2.85.

Turning to LNLAMVYRYCCKLNKKYKSYSLSR, the protein stability index was found to be 3.33.

In the case of LNLAMVYRYCCKLNKKHKSYSLSR, the protein stability index came out at 2.21.

For the variant LNLAMVYRYCCKLNKKPKSYSLSR, the protein stability index was found to be 3.05.

LNLAMVYRYCCKLNKKKKSYSLSR: the protein stability index is 2.24.

Turning to LNLAMVYRYCCKLNKKLKSYSLIR, the protein stability index was 3.46.

With LNLAMVYRYCCKLNKKLKSYSLCR, the protein stability index amounted to 2.49.

Take LNLAMVYRYCCKLNKKLKSYSLRR: the protein stability index was found to be 4.26.

Take LNLAMVYRYCCKLNKKLKSYSLQR: the protein stability index stood at 2.53.

For LNLAMVYRYCCKLNKKLKSYSLWR, the protein stability index turned out to be 3.77.

LNLAMVYRYCCKLNKKLKSYSLGR: the protein stability index was 2.2.

Turning to LNLAMVYRYCCKLNKKLKSYSLTR, the protein stability index turned out to be 3.09.

Turning to LNLAMVYRYCCKLNKKLKSYSLAR, the protein stability index turned out to be 3.5.

In the case of LNLAMVYRYCCKLNKKLKSYSLFR, the protein stability index turned out to be 2.69.

Regarding LNLAMVYRYCCKLNKKLKSYSLDR, the protein stability index is 2.55.

For the variant LNLAMVYRYCCKLNKKLKSYSLNR, the protein stability index stood at 2.35.

For the variant LNLAMVYRYCCKLNKKLKSYSLKR, the protein stability index was determined as 3.42.

For the variant LNLAMVYRYCCKLNKKLKSYSLLR, the protein stability index stood at 2.37.

For LNLAMVYRYCCKLNKKLKSYSLER, the protein stability index was found to be 4.66.

Regarding LNLAMVYRYCCKLNKKLKSYSLHR, the protein stability index was found to be 2.36.

As to LNLAMVYRYCCKLNKKLKSYSLYR, the protein stability index was 2.97.

Consider LNLAMVYRYCCKLNKKLKSYSLPR, for which the protein stability index came out at 2.95.

Turning to LNLAMVYRYCCKLNKKLKSYSLVR, the protein stability index was 2.77.

Consider LNLAMVYRYCCKLNKKLKSYSLSN, for which the protein stability index was found to be 3.15.

Take LNLAMVYRYCCKLNKKLKSYSLSM: the protein stability index amounted to 2.37.

Consider LNLAMVYRYCCKLNKKLKSYSLSS, for which the protein stability index worked out at 2.19.

As to LNLAMVYRYCCKLNKKLKSYSLSP, the protein stability index worked out at 2.59.

Regarding LNLAMVYRYCCKLNKKLKSYSLST, the protein stability index amounted to 1.99.

LNLAMVYRYCCKLNKKLKSYSLSE: the protein stability index worked out at 2.72.

In the case of LNLAMVYRYCCKLNKKLKSYSLSL, the protein stability index was determined as 3.97.

For the variant LNLAMVYRYCCKLNKKLKSYSLSD, the protein stability index was 3.64.

Consider LNLAMVYRYCCKLNKKLKSYSLSY, for which the protein stability index was 3.41.

In the case of LNLAMVYRYCCKLNKKLKSYSLSI, the protein stability index was 3.79.

As to LNLAMVYRYCCKLNKKLKSYSLSQ, the protein stability index amounted to 4.16.

On to LNLAMVYRYCCKLNKKLKSYSLSF, for which the protein stability index is 2.97.

Regarding LNLAMVYRYCCKLNKKLKSYSLSW, the protein stability index came out at 3.11.

As to LNLAMVYRYCCKLNKKLKSYSLSK, the protein stability index was determined as 2.13.

Take LNLAMVYRYCCKLNKKLKSYSLSH: the protein stability index is 2.69.

As to LNLAMVYRYCCKLNKKLKSYSLSG, the protein stability index came out at 2.21.

For the variant LNLAMVYRYCCKLNKKLKSYSLSC, the protein stability index came to 3.05.

Take LNLAMVYRYCCKLNKKLKSYSLSV: the protein stability index worked out at 3.52.

LNLAMVYRYCCKLNKKLKSYSLSA: the protein stability index turned out to be 3.55.

Turning to LNLAMVYRYCCKLNKKLKSRSLSR, the protein stability index turned out to be 2.17.

As to LNLAMVYRYCCKLNKKLKSLSLSR, the protein stability index turned out to be 2.94.

Regarding LNLAMVYRYCCKLNKKLKSPSLSR, the protein stability index was found to be 4.23.

Take LNLAMVYRYCCKLNKKLKSVSLSR: the protein stability index is 2.52.

Turning to LNLAMVYRYCCKLNKKLKSNSLSR, the protein stability index was 2.16.

Turning to LNLAMVYRYCCKLNKKLKSISLSR, the protein stability index came out at 3.15.

For LNLAMVYRYCCKLNKKLKSWSLSR, the protein stability index was 3.32.

Take LNLAMVYRYCCKLNKKLKSKSLSR: the protein stability index was 3.24.

Turning to LNLAMVYRYCCKLNKKLKSQSLSR, the protein stability index stood at 3.1.

LNLAMVYRYCCKLNKKLKSHSLSR: the protein stability index worked out at 3.02.

Consider LNLAMVYRYCCKLNKKLKSDSLSR, for which the protein stability index worked out at 3.34.
